Patent publication US20140087995A1 (published 2014)
Numbered stars: 1 amine (or outer) side, 2 acyl side, 3 side chain; on linkers, the order of the positions; unused ones are H or OH. Bridge positions count the residues as written; N and C are the ends. Side chains are listed from the residue outwards. Ends that are not written are not given here. * marks the point of attachment. C20 diacid = O=C(O)CCCCCCCCCCCCCCCCCCC(=O)*; γGlu = O=C(O)[C@H](CCC(=O)[*:2])N[*:1]

T1: human calcitonin receptor (human, UniProt P30988 25-474)
T1 sequence (looked up): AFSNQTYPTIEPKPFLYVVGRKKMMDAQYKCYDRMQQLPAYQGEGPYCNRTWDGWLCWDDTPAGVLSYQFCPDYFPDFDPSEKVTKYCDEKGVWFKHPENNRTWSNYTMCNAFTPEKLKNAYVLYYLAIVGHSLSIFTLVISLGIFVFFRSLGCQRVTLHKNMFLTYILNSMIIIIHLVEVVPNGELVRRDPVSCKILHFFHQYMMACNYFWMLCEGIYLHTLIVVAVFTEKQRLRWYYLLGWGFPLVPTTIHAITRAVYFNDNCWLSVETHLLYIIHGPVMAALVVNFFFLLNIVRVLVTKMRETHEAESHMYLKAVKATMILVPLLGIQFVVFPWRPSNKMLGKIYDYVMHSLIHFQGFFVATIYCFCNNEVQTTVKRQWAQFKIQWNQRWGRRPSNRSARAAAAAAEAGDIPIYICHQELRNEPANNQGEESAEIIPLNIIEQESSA

T2: human amylin 3(a) receptor (human calcitonin receptor + RAMP-3) (human, UniProt P30988 25-474; O60896 24-148, limits assumed)
T2 sequence (looked up) 1: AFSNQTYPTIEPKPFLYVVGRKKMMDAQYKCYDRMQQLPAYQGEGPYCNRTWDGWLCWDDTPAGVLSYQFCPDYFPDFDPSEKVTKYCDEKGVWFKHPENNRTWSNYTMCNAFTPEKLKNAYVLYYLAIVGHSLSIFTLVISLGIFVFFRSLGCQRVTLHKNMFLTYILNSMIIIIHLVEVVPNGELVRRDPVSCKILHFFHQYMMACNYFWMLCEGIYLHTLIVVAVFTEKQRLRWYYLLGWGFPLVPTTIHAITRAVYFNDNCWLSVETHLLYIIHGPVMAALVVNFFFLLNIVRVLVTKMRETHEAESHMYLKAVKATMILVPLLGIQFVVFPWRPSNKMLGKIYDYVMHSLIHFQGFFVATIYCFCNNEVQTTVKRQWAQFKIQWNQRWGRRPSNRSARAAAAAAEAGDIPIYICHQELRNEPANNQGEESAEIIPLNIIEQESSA
T2 sequence (looked up) 2: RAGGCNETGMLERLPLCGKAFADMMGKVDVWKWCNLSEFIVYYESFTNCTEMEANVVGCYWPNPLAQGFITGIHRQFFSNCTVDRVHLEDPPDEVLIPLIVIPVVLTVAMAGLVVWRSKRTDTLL


Assays:
[1] = target: T1, human calcitonin receptor; assay: cell-based or functional assay
[2] = target: T2, human amylin 3(a) receptor (human …); assay: cell-based or functional assay

Row | Binder | Ratio hCT/hAmylin funct. [1] | hAmylin-R funct. EC50 (pM) [2] [pM] | hCTR funct. EC50 (pM) [1] [pM]
1 | K([γGlu-C20 diacid])CNTATCATQRLAHFLRHSSPNFGAIPSSTPVGPNTY-NH2 (disulfide 2-7; N-terminus assumed; SMILES CC[C@H](C)[C@H](NC(=O)[C@H](C)NC(=O)CNC(=O)[C@H](Cc1ccccc1)NC(=O)[C@H](CC(N)=O)NC(=O)[C@@H]1CCCN1C(=O)[C@H](CO)NC(=O)[C@H](CO)NC(=O)[C@H](Cc1c[nH]cn1)NC(=O)[C@H](CCCNC(=N)N)NC(=O)[C@H](CC(C)C)NC(=O)[C@H](Cc1ccccc1)NC(=O)[C@H](Cc1c[nH]cn1)NC(=O)[C@H](C)NC(=O)[C@H](CC(C)C)NC(=O)[C@H](CCCNC(=N)N)NC(=O)[C@H](CCC(N)=O)NC(=O)[C@@H](NC(=O)[C@H](C)NC(=O)[C@@H]1CSSC[C@H](NC(=O)[C@@H](N)CCCCNC(=O)CC[C@H](NC(=O)CCCCCCCCCCCCCCCCCCC(=O)O)C(=O)O)C(=O)N[C@@H](CC(N)=O)C(=O)N[C@@H]([C@@H](C)O)C(=O)N[C@@H](C)C(=O)N[C@@H]([C@@H](C)O)C(=O)N1)[C@@H](C)O)C(=O)N1CCC[C@H]1C(=O)N[C@@H](CO)C(=O)N[C@@H](CO)C(=O)N[C@H](C(=O)N1CCC[C@H]1C(=O)N[C@H](C(=O)NCC(=O)N1CCC[C@H]1C(=O)N[C@@H](CC(N)=O)C(=O)N[C@H](C(=O)N[C@@H](Cc1ccc(O)cc1)C(N)=O)[C@@H](C)O)C(C)C)[C@@H](C)O) | 4.9 | 71 | –
2 | K([γGlu-γGlu-C20 diacid])CNTATCATQRLAEFLRHSSPNFGAIPSSTNVGPETP-NH2 (disulfide 2-7; N-terminus assumed; SMILES CC[C@H](C)[C@H](NC(=O)[C@H](C)NC(=O)CNC(=O)[C@H](Cc1ccccc1)NC(=O)[C@H](CC(N)=O)NC(=O)[C@@H]1CCCN1C(=O)[C@H](CO)NC(=O)[C@H](CO)NC(=O)[C@H](Cc1c[nH]cn1)NC(=O)[C@H](CCCNC(=N)N)NC(=O)[C@H](CC(C)C)NC(=O)[C@H](Cc1ccccc1)NC(=O)[C@H](CCC(=O)O)NC(=O)[C@H](C)NC(=O)[C@H](CC(C)C)NC(=O)[C@H](CCCNC(=N)N)NC(=O)[C@H](CCC(N)=O)NC(=O)[C@@H](NC(=O)[C@H](C)NC(=O)[C@@H]1CSSC[C@H](NC(=O)[C@@H](N)CCCCNC(=O)CC[C@H](NC(=O)CC[C@H](NC(=O)CCCCCCCCCCCCCCCCCCC(=O)O)C(=O)O)C(=O)O)C(=O)N[C@@H](CC(N)=O)C(=O)N[C@@H]([C@@H](C)O)C(=O)N[C@@H](C)C(=O)N[C@@H]([C@@H](C)O)C(=O)N1)[C@@H](C)O)C(=O)N1CCC[C@H]1C(=O)N[C@@H](CO)C(=O)N[C@@H](CO)C(=O)N[C@H](C(=O)N[C@@H](CC(N)=O)C(=O)N[C@H](C(=O)NCC(=O)N1CCC[C@H]1C(=O)N[C@@H](CCC(=O)O)C(=O)N[C@H](C(=O)N1CCC[C@H]1C(N)=O)[C@@H](C)O)C(C)C)[C@@H](C)O) | 0.8 | 132 | 102
3 | K([γGlu-C20 diacid])CNTATCATQRLAEFLRHSSPNFGAIPSSTNVGSNTP-NH2 (disulfide 2-7; N-terminus assumed; SMILES CC[C@H](C)[C@H](NC(=O)[C@H](C)NC(=O)CNC(=O)[C@H](Cc1ccccc1)NC(=O)[C@H](CC(N)=O)NC(=O)[C@@H]1CCCN1C(=O)[C@H](CO)NC(=O)[C@H](CO)NC(=O)[C@H](Cc1c[nH]cn1)NC(=O)[C@H](CCCNC(=N)N)NC(=O)[C@H](CC(C)C)NC(=O)[C@H](Cc1ccccc1)NC(=O)[C@H](CCC(=O)O)NC(=O)[C@H](C)NC(=O)[C@H](CC(C)C)NC(=O)[C@H](CCCNC(=N)N)NC(=O)[C@H](CCC(N)=O)NC(=O)[C@@H](NC(=O)[C@H](C)NC(=O)[C@@H]1CSSC[C@H](NC(=O)[C@@H](N)CCCCNC(=O)CC[C@H](NC(=O)CCCCCCCCCCCCCCCCCCC(=O)O)C(=O)O)C(=O)N[C@@H](CC(N)=O)C(=O)N[C@@H]([C@@H](C)O)C(=O)N[C@@H](C)C(=O)N[C@@H]([C@@H](C)O)C(=O)N1)[C@@H](C)O)C(=O)N1CCC[C@H]1C(=O)N[C@@H](CO)C(=O)N[C@@H](CO)C(=O)N[C@H](C(=O)N[C@@H](CC(N)=O)C(=O)N[C@H](C(=O)NCC(=O)N[C@@H](CO)C(=O)N[C@@H](CC(N)=O)C(=O)N[C@H](C(=O)N1CCC[C@H]1C(N)=O)[C@@H](C)O)C(C)C)[C@@H](C)O, also called compound 12) | 1.8 | 101 | –

Second part, the binder after the results:

Row | Ratio hCT/hAmylin funct. [1] | hAmylin-R funct. EC50 (pM) [2] [pM] | hCTR funct. EC50 (pM) [1] [pM] | Binder
4 | 0.8 | 52 | – | K([γGlu-C20 diacid])CNTATCATQRLAHFLRHSSPNFGAIPSSTNVGPNTP-NH2 (disulfide 2-7; N-terminus assumed; SMILES CC[C@H](C)[C@H](NC(=O)[C@H](C)NC(=O)CNC(=O)[C@H](Cc1ccccc1)NC(=O)[C@H](CC(N)=O)NC(=O)[C@@H]1CCCN1C(=O)[C@H](CO)NC(=O)[C@H](CO)NC(=O)[C@H](Cc1c[nH]cn1)NC(=O)[C@H](CCCNC(=N)N)NC(=O)[C@H](CC(C)C)NC(=O)[C@H](Cc1ccccc1)NC(=O)[C@H](Cc1c[nH]cn1)NC(=O)[C@H](C)NC(=O)[C@H](CC(C)C)NC(=O)[C@H](CCCNC(=N)N)NC(=O)[C@H](CCC(N)=O)NC(=O)[C@@H](NC(=O)[C@H](C)NC(=O)[C@@H]1CSSC[C@H](NC(=O)[C@@H](N)CCCCNC(=O)CC[C@H](NC(=O)CCCCCCCCCCCCCCCCCCC(=O)O)C(=O)O)C(=O)N[C@@H](CC(N)=O)C(=O)N[C@@H]([C@@H](C)O)C(=O)N[C@@H](C)C(=O)N[C@@H]([C@@H](C)O)C(=O)N1)[C@@H](C)O)C(=O)N1CCC[C@H]1C(=O)N[C@@H](CO)C(=O)N[C@@H](CO)C(=O)N[C@H](C(=O)N[C@@H](CC(N)=O)C(=O)N[C@H](C(=O)NCC(=O)N1CCC[C@H]1C(=O)N[C@@H](CC(N)=O)C(=O)N[C@H](C(=O)N1CCC[C@H]1C(N)=O)[C@@H](C)O)C(C)C)[C@@H](C)O)
5 | 2.2 | 213 | – | K([γGlu-γGlu-C20 diacid])CNTATCATQRLAEFLRHSSPNFGAIPSSTNVGSNTP-NH2 (disulfide 2-7; N-terminus assumed; SMILES CC[C@H](C)[C@H](NC(=O)[C@H](C)NC(=O)CNC(=O)[C@H](Cc1ccccc1)NC(=O)[C@H](CC(N)=O)NC(=O)[C@@H]1CCCN1C(=O)[C@H](CO)NC(=O)[C@H](CO)NC(=O)[C@H](Cc1c[nH]cn1)NC(=O)[C@H](CCCNC(=N)N)NC(=O)[C@H](CC(C)C)NC(=O)[C@H](Cc1ccccc1)NC(=O)[C@H](CCC(=O)O)NC(=O)[C@H](C)NC(=O)[C@H](CC(C)C)NC(=O)[C@H](CCCNC(=N)N)NC(=O)[C@H](CCC(N)=O)NC(=O)[C@@H](NC(=O)[C@H](C)NC(=O)[C@@H]1CSSC[C@H](NC(=O)[C@@H](N)CCCCNC(=O)CC[C@H](NC(=O)CC[C@H](NC(=O)CCCCCCCCCCCCCCCCCCC(=O)O)C(=O)O)C(=O)O)C(=O)N[C@@H](CC(N)=O)C(=O)N[C@@H]([C@@H](C)O)C(=O)N[C@@H](C)C(=O)N[C@@H]([C@@H](C)O)C(=O)N1)[C@@H](C)O)C(=O)N1CCC[C@H]1C(=O)N[C@@H](CO)C(=O)N[C@@H](CO)C(=O)N[C@H](C(=O)N[C@@H](CC(N)=O)C(=O)N[C@H](C(=O)NCC(=O)N[C@@H](CO)C(=O)N[C@@H](CC(N)=O)C(=O)N[C@H](C(=O)N1CCC[C@H]1C(N)=O)[C@@H](C)O)C(C)C)[C@@H](C)O, also called compound 13)
6 | 1.6 | 146 | – | {C20 diacid-γGlu-γGlu}-KCNTATCATQRLAEFLRHSSPNFGAIPSSTNVGSNTP-NH2 (disulfide 2-7; SMILES CC[C@H](C)[C@H](NC(=O)[C@H](C)NC(=O)CNC(=O)[C@H](Cc1ccccc1)NC(=O)[C@H](CC(N)=O)NC(=O)[C@@H]1CCCN1C(=O)[C@H](CO)NC(=O)[C@H](CO)NC(=O)[C@H](Cc1c[nH]cn1)NC(=O)[C@H](CCCNC(=N)N)NC(=O)[C@H](CC(C)C)NC(=O)[C@H](Cc1ccccc1)NC(=O)[C@H](CCC(=O)O)NC(=O)[C@H](C)NC(=O)[C@H](CC(C)C)NC(=O)[C@H](CCCNC(=N)N)NC(=O)[C@H](CCC(N)=O)NC(=O)[C@@H](NC(=O)[C@H](C)NC(=O)[C@@H]1CSSC[C@H](NC(=O)[C@H](CCCCN)NC(=O)CC[C@H](NC(=O)CC[C@H](NC(=O)CCCCCCCCCCCCCCCCCCC(=O)O)C(=O)O)C(=O)O)C(=O)N[C@@H](CC(N)=O)C(=O)N[C@@H]([C@@H](C)O)C(=O)N[C@@H](C)C(=O)N[C@@H]([C@@H](C)O)C(=O)N1)[C@@H](C)O)C(=O)N1CCC[C@H]1C(=O)N[C@@H](CO)C(=O)N[C@@H](CO)C(=O)N[C@H](C(=O)N[C@@H](CC(N)=O)C(=O)N[C@H](C(=O)NCC(=O)N[C@@H](CO)C(=O)N[C@@H](CC(N)=O)C(=O)N[C@H](C(=O)N1CCC[C@H]1C(N)=O)[C@@H](C)O)C(C)C)[C@@H](C)O, also called compound 14)
